± gives the standard deviation.
Test: collision cross section of unmodified peptide (TIMS, N2, iRT-aligned); higher = larger / more extended gas-phase ion
Summary of the method: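 Collision cross section was derived from the Mason-Schamp equation. Each value averages 1–3 technical replicates of the most abundant feature per charge state, measured on a timsTOF Pro/HT in dda-PASEF mode (nitrogen, ~2.4 mbar) after a 120-min nanoflow C18 gradient at 60 °C. Synthetic peptide pools (~100 fmol/µL in 2% acetonitrile/0.1% formic acid, iRT standard spiked 1:40) were identified with MaxQuant, and 1/K0 was calibrated with three reference ions and aligned run-wise to the median iRT peptide deviation.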

In the case of VDVEVPDVSLEGPEGKLK, the collision cross section (charge state: 2) is reported as 461.73 ± 2.9 Å² and the collision cross section (charge state: 3) is reported as 514.03 ± 36 Å².
KSQAGASELGPFSDPR showed a collision cross section (charge state: 3) of 497 ± 1.7 Å².
AIEINPDSAQPYK gave a collision cross section (charge state: 2) of 394.83 ± 1.7 Å².
With TELLPGDRDNLAIQTR the collision cross section (charge state: 3) was 506.52 ± 0.86 Å².
AQLSQYFDAVK gave a collision cross section (charge state: 2) of 384.48 ± 1.1 Å².
With VHATSTYR the collision cross section (charge state: 2) was 325.88 ± 0.49 Å² and the collision cross section (charge state: 3) was 398.18 ± 1.6 Å².
GSYLGGYSAGRGIYSR gave a collision cross section (charge state: 2) of 455.17 Å² and a collision cross section (charge state: 3) of 483.36 ± 2.1 Å².
NLVTGDHIPTPQDLPQR showed a collision cross section (charge state: 3) of 475.9 ± 0.23 Å².
Work on PANEKATDDYHYEK yielded a collision cross section (charge state: 2) of 416.54 ± 2.6 Å² and a collision cross section (charge state: 3) of 493.57 ± 4.5 Å².
VPGVGLPGVYPGGVLPGAR gave a collision cross section (charge state: 2) of 445.04 ± 0.9 Å² and a collision cross section (charge state: 3) of 532.89 ± 0.34 Å².
AAINQKLIETGER gave a collision cross section (charge state: 2) of 409.65 ± 1.4 Å² and a collision cross section (charge state: 3) of 476.29 ± 7.6 Å².
In the case of TAIQAAGYPDK, the collision cross section (charge state: 2) is reported as 362.76 ± 1.1 Å².
GNPGVGTQGPR showed a collision cross section (charge state: 2) of 333.35 ± 8.7 Å².
Substance ESISVSSEQLAQFR has a collision cross section (charge state: 2) of 416.66 ± 2.8 Å².
With RLPNVHGR the collision cross section (charge state: 2) was 332.52 ± 0.039 Å² and the collision cross section (charge state: 3) was 419.7 ± 5.1 Å².
With DESFLGKLGGTLAR the collision cross section (charge state: 2) was 409.59 ± 1.4 Å² and the collision cross section (charge state: 3) was 475.21 ± 2.7 Å².
STLEEPNLQPLQR showed a collision cross section (charge state: 2) of 408.53 ± 0.66 Å².
For GPQNATDSYVHK, the collision cross section (charge state: 2) was 381.43 ± 1.1 Å² and the collision cross section (charge state: 3) was 445.36 ± 1.8 Å².
With INNFSADIKDSK the collision cross section (charge state: 2) was 403.18 ± 2.5 Å² and the collision cross section (charge state: 3) was 450.51 ± 4 Å².
With PGTPAGYGRGR the collision cross section (charge state: 2) was 352.56 ± 0.57 Å² and the collision cross section (charge state: 3) was 442.29 ± 3.7 Å².
For VYVGNLGTGAGK, the collision cross section (charge state: 2) was 357.65 ± 0.15 Å².
Work on GLPGLAGDHGEFGEK yielded a collision cross section (charge state: 2) of 432.07 ± 1 Å² and a collision cross section (charge state: 3) of 504.1 ± 0.34 Å².
Substance VGYPGPSGPLGAR has a collision cross section (charge state: 2) of 357.93 ± 0.58 Å² and a collision cross section (charge state: 3) of 439.38 ± 0.85 Å².
Work on LTEKELAEAASK yielded a collision cross section (charge state: 2) of 387.7 ± 1 Å² and a collision cross section (charge state: 3) of 479.05 ± 4.3 Å².
TTGFYSGFSEVAEKR gave a collision cross section (charge state: 2) of 454.17 ± 3.2 Å² and a collision cross section (charge state: 3) of 530.82 ± 1.6 Å².
For FVDSKVGEFSGANK, the collision cross section (charge state: 2) was 415.64 ± 1.8 Å².
In the case of YILIPASQQPK, the collision cross section (charge state: 2) is reported as 375.08 ± 0.48 Å².
Substance VFIGNLNTLVVKKK has a collision cross section (charge state: 3) of 483.04 ± 2.6 Å².
For PGPQPSAETTR, the collision cross section (charge state: 2) was 342.87 ± 0.58 Å² and the collision cross section (charge state: 3) was 415.85 ± 2 Å².
Substance VTRYPILGIPQAHR has a collision cross section (charge state: 3) of 523.45 ± 1.1 Å².
In the case of GEIGPPGPR, the collision cross section (charge state: 2) is reported as 309.77 ± 3.8 Å².
Work on CSVLAAANPVYGR yielded a collision cross section (charge state: 2) of 385.24 ± 0.16 Å².
In the case of PPGFSPFRSSR, the collision cross section (charge state: 2) is reported as 357.9 ± 0.86 Å² and the collision cross section (charge state: 3) is reported as 455.41 ± 1.7 Å².
With TPSSFRQPFTPTSR the collision cross section (charge state: 3) was 486.75 ± 0.79 Å².
Work on LGPPGNPGPSGSPGPKGQK yielded a collision cross section (charge state: 2) of 422.18 ± 1.4 Å² and a collision cross section (charge state: 3) of 483.14 ± 1.2 Å².
Substance LGVPGLPGYPGR has a collision cross section (charge state: 2) of 354.06 ± 0.41 Å².
Substance ETTPSSLAVTQTMATK has a collision cross section (charge state: 2) of 434.06 ± 0.13 Å².
Substance DFAFYNPRLQGK has a collision cross section (charge state: 2) of 408.01 ± 1.3 Å² and a collision cross section (charge state: 3) of 473.2 ± 2.9 Å².
YSTSGSSGLTTGK gave a collision cross section (charge state: 2) of 373.3 ± 0.54 Å².
In the case of DLATVYVDVLK, the collision cross section (charge state: 2) is reported as 382.78 ± 0.75 Å².
SLKLNTAEDAK gave a collision cross section (charge state: 2) of 372.65 ± 1.5 Å² and a collision cross section (charge state: 3) of 469.12 ± 5.3 Å².
Substance AGPNASIISLKSDK has a collision cross section (charge state: 2) of 408.7 ± 1.4 Å² and a collision cross section (charge state: 3) of 483.51 ± 6.7 Å².
In the case of DHSKPISNPSDNK, the collision cross section (charge state: 2) is reported as 390.86 ± 0.14 Å² and the collision cross section (charge state: 3) is reported as 478.96 ± 0.22 Å².
In the case of VPTTEKPTVTVNFR, the collision cross section (charge state: 2) is reported as 427.25 ± 2.6 Å² and the collision cross section (charge state: 3) is reported as 517.02 ± 4.3 Å².
Work on IINEPTAAAIAYGLDKK yielded a collision cross section (charge state: 2) of 487.73 ± 3.8 Å² and a collision cross section (charge state: 3) of 556.28 ± 2.3 Å².
Work on VMVAPISGSVTTGTK yielded a collision cross section (charge state: 2) of 396.94 ± 0.14 Å².
Work on GGPGSTLSFVGKR yielded a collision cross section (charge state: 2) of 395.98 ± 0.53 Å² and a collision cross section (charge state: 3) of 456.87 ± 1.5 Å².
SVGGSGGGSFGDNLVTR showed a collision cross section (charge state: 2) of 413.69 ± 1.1 Å².
GRGLPGPAESLR showed a collision cross section (charge state: 2) of 364.16 ± 0.25 Å² and a collision cross section (charge state: 3) of 446.18 ± 17 Å².
PATSYVR gave a collision cross section (charge state: 2) of 307.47 ± 0.15 Å².
Substance VETFSGVYK has a collision cross section (charge state: 2) of 332.43 ± 0.59 Å².
In the case of GRGAAAAGGPQR, the collision cross section (charge state: 2) is reported as 344.37 ± 5.2 Å² and the collision cross section (charge state: 3) is reported as 433.7 ± 4.8 Å².
GGSGGRGVSVSSAR showed a collision cross section (charge state: 2) of 376.75 ± 1.3 Å² and a collision cross section (charge state: 3) of 456.24 ± 1.8 Å².
In the case of QQETAAAETETR, the collision cross section (charge state: 2) is reported as 373.98 ± 0.14 Å² and the collision cross section (charge state: 3) is reported as 456.85 ± 0.22 Å².
For YGLIFHSTFIGRAAAK, the collision cross section (charge state: 3) was 526.88 Å².
DDSNLYINVK showed a collision cross section (charge state: 2) of 367.7 ± 0.74 Å².

From the supplement of paper PMC10598134
